Data reported in PMC6751169.
Blank lines part the entries; values can stand above or below the substance they belong to.

Legend:
[1] = molecular target: CrtERD-YFP (geranylgeranyl diphosphate synthase, CrtE-RIDD, fused with yellow fluorescent protein) (UniProt P10644); test: FRET or BRET; lifetime-based FRET (two-photon FLIM) in living E. coli cells; CFP donor excited at 810 nm, signal collected at 481 nm; strain Car2f against control strain Car1f
[2] = molecular target: MenDRA2 (MenD-RIAD-RIAD with two sequential RIAD peptide tags) (E. coli); test: transmission electron microscopy; TEM of the SEC-purified Assemblies A, B and C; two-dimensional single-particle analysis on Assembly B
[3] = molecular target: MenDRA (MenD-RIAD with one RIAD peptide tag) (E. coli); test: as above
[4] = molecular target: MenDRD (MenD-RIDD with one RIDD peptide tag) (E. coli | not stated); test: as above
[5] = molecular target: MenDRD (MenD-RIDD with one RIDD peptide tag) (E. coli | not stated); test: SEC; 1.5 mg of enzyme fused with RIAD mixed with two-fold molar excess of enzyme fused with RIDD in Tris buffer pH 7.8, 1 mM EDTA, 0.02% Tween-20, no incubation; Superdex 200 10/300 GL, 0.4 mL/min, Tris pH 7.8, 50 mM NaCl; masses from a calibration curve

FRET efficiency E [1]: 29%
Substance: IdiRA-CFP (isopentenyl diphosphate isomerase, Idi-RIAD, fused with cyan fluorescent protein) (enzyme)

stoichiometry N [4]: 4
Substance: MenDRD (MenD-RIDD with one RIDD peptide tag) (from UniProt P10644 1-44) (enzyme)

Second part, the substance before the results:

Substance: MenDRA2 (MenD-RIAD-RIAD with two sequential RIAD peptide tags) (enzyme)
stoichiometry N [2]: 4

Substance: MenDRA (MenD-RIAD with one RIAD peptide tag) (enzyme)
stoichiometry N [3]: 4

Substance: MenHRA (MenH-RIAD with one RIAD peptide tag) (enzyme)
stoichiometry N (MenH per 4 MenD (per particle)) [5]: 2
